The target in assay [1] is recombinant human calcitonin receptor (hCT-R) (human), P30988. Description: cell-based or functional assay.
Assay [2] has as its target recombinant human amylin 3 receptor (hAMYR3) (human), P30988. Description: cell-based or functional assay.

Numbered stars: 1 amine (or outer) side, 2 acyl side, 3 side chain; on linkers, the order of the positions; unused ones are H or OH. Bridge positions count the residues as written; N and C are the ends. Square brackets hold non-standard residues; d marks the D form. * marks the point of attachment. C20 diacid = O=C(O)CCCCCCCCCCCCCCCCCCC(=O)*; γGlu = O=C(O)[C@H](CCC(=O)[*:2])N[*:1]; Hyp = O=C(O)[C@@H]1C[C@@H](O)CN1; NMeI = CC[C@H](C)[C@H](NC)C(=O)O; Aad = N[C@@H](CCCC(=O)O)C(=O)O; Orn = NCCC[C@H](N)C(=O)O; Sar = CNCC(=O)O

Sequence of recombinant human calcitonin receptor (hCT-R) (human), P30988 (P30988 25-474): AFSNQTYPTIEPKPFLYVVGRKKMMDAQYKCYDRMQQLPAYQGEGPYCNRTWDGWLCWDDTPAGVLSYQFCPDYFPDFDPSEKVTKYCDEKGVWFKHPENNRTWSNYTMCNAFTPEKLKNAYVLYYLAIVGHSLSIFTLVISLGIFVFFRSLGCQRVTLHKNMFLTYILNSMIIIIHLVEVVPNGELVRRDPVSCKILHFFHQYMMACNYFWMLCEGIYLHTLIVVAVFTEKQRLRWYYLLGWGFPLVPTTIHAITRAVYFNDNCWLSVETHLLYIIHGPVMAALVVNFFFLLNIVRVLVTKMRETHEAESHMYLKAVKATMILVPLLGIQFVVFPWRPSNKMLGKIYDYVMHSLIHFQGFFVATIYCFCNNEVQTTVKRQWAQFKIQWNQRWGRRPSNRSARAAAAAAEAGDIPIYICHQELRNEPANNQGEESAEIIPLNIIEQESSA
Sequence of recombinant human amylin 3 receptor (hAMYR3) (human), P30988 (P30988 25-474, chain 1 of 2): as the sequence (P30988 25-474) above
Sequence of recombinant human amylin 3 receptor (hAMYR3) (human), P30988 (O60896 24-148, chain 2 of 2, further chain): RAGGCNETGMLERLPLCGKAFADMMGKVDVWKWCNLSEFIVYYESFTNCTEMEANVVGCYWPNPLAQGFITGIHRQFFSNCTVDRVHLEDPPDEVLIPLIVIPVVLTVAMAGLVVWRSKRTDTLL

B1: Compound 4 (peptide)
peptide: {C20 diacid-γGlu-γGlu}-RDGTAT[Orn]ATERLAHFLQRSSF[Sar]A[NMeI]LSSTEVGSNT[Hyp]-NH2
modifications: lactam 2-7
SMILES: CC[C@H](C)[C@@H](C(=O)N[C@@H](CC(C)C)C(=O)N[C@@H](CO)C(=O)N[C@@H](CO)C(=O)N[C@H](C(=O)N[C@@H](CCC(=O)O)C(=O)N[C@H](C(=O)NCC(=O)N[C@@H](CO)C(=O)N[C@@H](CC(N)=O)C(=O)N[C@H](C(=O)N1C[C@H](O)C[C@H]1C(N)=O)[C@@H](C)O)C(C)C)[C@@H](C)O)N(C)C(=O)[C@H](C)NC(=O)CN(C)C(=O)[C@H](Cc1ccccc1)NC(=O)[C@H](CO)NC(=O)[C@H](CO)NC(=O)[C@H](CCCNC(=N)N)NC(=O)[C@H](CCC(N)=O)NC(=O)[C@H](CC(C)C)NC(=O)[C@H](Cc1ccccc1)NC(=O)[C@H](Cc1c[nH]cn1)NC(=O)[C@H](C)NC(=O)[C@H](CC(C)C)NC(=O)[C@H](CCCNC(=N)N)NC(=O)[C@H](CCC(=O)O)NC(=O)[C@@H](NC(=O)[C@H](C)NC(=O)[C@@H]1CCCNC(=O)C[C@H](NC(=O)[C@H](CCCNC(=N)N)NC(=O)CC[C@H](NC(=O)CC[C@H](NC(=O)CCCCCCCCCCCCCCCCCCC(=O)O)C(=O)O)C(=O)O)C(=O)NCC(=O)N[C@@H]([C@@H](C)O)C(=O)N[C@@H](C)C(=O)N[C@@H]([C@@H](C)O)C(=O)N1)[C@@H](C)O
In the case of B1, in assay [1], the hCT-R EC50 [nM] (cAMP formation, 1321N1 cells expressing hCT-R) was 0.16 nM. Also, in assay [2], the hAMYR3 EC50 [nM] (cAMP formation, 1321N1 cells expressing hAMYR3) came to 0.092 nM.

B2: Compound 41 (peptide)
peptide: {C20 diacid-γGlu}-RDGTATKATQRLADFLQRSSF[Sar]A[NMeI]LSSTEVGSNT[Hyp]-NH2
modifications: lactam 2-7
SMILES: CC[C@H](C)[C@@H](C(=O)N[C@@H](CC(C)C)C(=O)N[C@@H](CO)C(=O)N[C@@H](CO)C(=O)N[C@H](C(=O)N[C@@H](CCC(=O)O)C(=O)N[C@H](C(=O)NCC(=O)N[C@@H](CO)C(=O)N[C@@H](CC(N)=O)C(=O)N[C@H](C(=O)N1C[C@H](O)C[C@H]1C(N)=O)[C@@H](C)O)C(C)C)[C@@H](C)O)N(C)C(=O)[C@H](C)NC(=O)CN(C)C(=O)[C@H](Cc1ccccc1)NC(=O)[C@H](CO)NC(=O)[C@H](CO)NC(=O)[C@H](CCCNC(=N)N)NC(=O)[C@H](CCC(N)=O)NC(=O)[C@H](CC(C)C)NC(=O)[C@H](Cc1ccccc1)NC(=O)[C@H](CC(=O)O)NC(=O)[C@H](C)NC(=O)[C@H](CC(C)C)NC(=O)[C@H](CCCNC(=N)N)NC(=O)[C@H](CCC(N)=O)NC(=O)[C@@H](NC(=O)[C@H](C)NC(=O)[C@@H]1CCCCNC(=O)C[C@H](NC(=O)[C@H](CCCNC(=N)N)NC(=O)CC[C@H](NC(=O)CCCCCCCCCCCCCCCCCCC(=O)O)C(=O)O)C(=O)NCC(=O)N[C@@H]([C@@H](C)O)C(=O)N[C@@H](C)C(=O)N[C@@H]([C@@H](C)O)C(=O)N1)[C@@H](C)O
For B2, the hCT-R EC50 [nM] (cAMP formation, 1321N1 cells expressing hCT-R) in assay [1] was determined as 0.095 nM. In addition, the hAMYR3 EC50 [nM] (cAMP formation, 1321N1 cells expressing hAMYR3) in assay [2] was found to be 0.024 nM.

B3: Compound 38 (peptide)
peptide: {C20 diacid-γGlu}-RDGTATKATERLA[Aad]FLQRTTF[Sar]A[NMeI]LSSTEVGSNT[Hyp]-NH2
modifications: lactam 2-7
SMILES: CC[C@H](C)[C@@H](C(=O)N[C@@H](CC(C)C)C(=O)N[C@@H](CO)C(=O)N[C@@H](CO)C(=O)N[C@H](C(=O)N[C@@H](CCC(=O)O)C(=O)N[C@H](C(=O)NCC(=O)N[C@@H](CO)C(=O)N[C@@H](CC(N)=O)C(=O)N[C@H](C(=O)N1C[C@H](O)C[C@H]1C(N)=O)[C@@H](C)O)C(C)C)[C@@H](C)O)N(C)C(=O)[C@H](C)NC(=O)CN(C)C(=O)[C@H](Cc1ccccc1)NC(=O)[C@@H](NC(=O)[C@@H](NC(=O)[C@H](CCCNC(=N)N)NC(=O)[C@H](CCC(N)=O)NC(=O)[C@H](CC(C)C)NC(=O)[C@H](Cc1ccccc1)NC(=O)[C@H](CCCC(=O)O)NC(=O)[C@H](C)NC(=O)[C@H](CC(C)C)NC(=O)[C@H](CCCNC(=N)N)NC(=O)[C@H](CCC(=O)O)NC(=O)[C@@H](NC(=O)[C@H](C)NC(=O)[C@@H]1CCCCNC(=O)C[C@H](NC(=O)[C@H](CCCNC(=N)N)NC(=O)CC[C@H](NC(=O)CCCCCCCCCCCCCCCCCCC(=O)O)C(=O)O)C(=O)NCC(=O)N[C@@H]([C@@H](C)O)C(=O)N[C@@H](C)C(=O)N[C@@H]([C@@H](C)O)C(=O)N1)[C@@H](C)O)[C@@H](C)O)[C@@H](C)O
Turning to B3, the hCT-R EC50 [nM] (cAMP formation, 1321N1 cells expressing hCT-R) in assay [1] worked out at 0.114 nM. Also, the hAMYR3 EC50 [nM] (cAMP formation, 1321N1 cells expressing hAMYR3) in assay [2] stood at 0.06 nM.

B4: Compound 39 (peptide)
peptide: {C20 diacid-γGlu}-KDGTATKATQRLA[Aad]FLQRSSF[Sar]A[NMeI]LSSTEVGSNT[Hyp]-NH2
modifications: lactam 2-7
SMILES: CC[C@H](C)[C@@H](C(=O)N[C@@H](CC(C)C)C(=O)N[C@@H](CO)C(=O)N[C@@H](CO)C(=O)N[C@H](C(=O)N[C@@H](CCC(=O)O)C(=O)N[C@H](C(=O)NCC(=O)N[C@@H](CO)C(=O)N[C@@H](CC(N)=O)C(=O)N[C@H](C(=O)N1C[C@H](O)C[C@H]1C(N)=O)[C@@H](C)O)C(C)C)[C@@H](C)O)N(C)C(=O)[C@H](C)NC(=O)CN(C)C(=O)[C@H](Cc1ccccc1)NC(=O)[C@H](CO)NC(=O)[C@H](CO)NC(=O)[C@H](CCCNC(=N)N)NC(=O)[C@H](CCC(N)=O)NC(=O)[C@H](CC(C)C)NC(=O)[C@H](Cc1ccccc1)NC(=O)[C@H](CCCC(=O)O)NC(=O)[C@H](C)NC(=O)[C@H](CC(C)C)NC(=O)[C@H](CCCNC(=N)N)NC(=O)[C@H](CCC(N)=O)NC(=O)[C@@H](NC(=O)[C@H](C)NC(=O)[C@@H]1CCCCNC(=O)C[C@H](NC(=O)[C@H](CCCCN)NC(=O)CC[C@H](NC(=O)CCCCCCCCCCCCCCCCCCC(=O)O)C(=O)O)C(=O)NCC(=O)N[C@@H]([C@@H](C)O)C(=O)N[C@@H](C)C(=O)N[C@@H]([C@@H](C)O)C(=O)N1)[C@@H](C)O
B4: in assay [1], the hCT-R EC50 [nM] (cAMP formation, 1321N1 cells expressing hCT-R) was 0.094 nM. Further, the hAMYR3 EC50 [nM] (cAMP formation, 1321N1 cells expressing hAMYR3) in assay [2] is 0.024 nM.

B5: Compound 40 (peptide)
peptide: {C20 diacid-γGlu}-RDGTATKATQRLA[Aad]FLQRSSF[Sar]A[NMeI]LSSTEVGSNT[Hyp]-NH2
modifications: lactam 2-7
SMILES: CC[C@H](C)[C@@H](C(=O)N[C@@H](CC(C)C)C(=O)N[C@@H](CO)C(=O)N[C@@H](CO)C(=O)N[C@H](C(=O)N[C@@H](CCC(=O)O)C(=O)N[C@H](C(=O)NCC(=O)N[C@@H](CO)C(=O)N[C@@H](CC(N)=O)C(=O)N[C@H](C(=O)N1C[C@H](O)C[C@H]1C(N)=O)[C@@H](C)O)C(C)C)[C@@H](C)O)N(C)C(=O)[C@H](C)NC(=O)CN(C)C(=O)[C@H](Cc1ccccc1)NC(=O)[C@H](CO)NC(=O)[C@H](CO)NC(=O)[C@H](CCCNC(=N)N)NC(=O)[C@H](CCC(N)=O)NC(=O)[C@H](CC(C)C)NC(=O)[C@H](Cc1ccccc1)NC(=O)[C@H](CCCC(=O)O)NC(=O)[C@H](C)NC(=O)[C@H](CC(C)C)NC(=O)[C@H](CCCNC(=N)N)NC(=O)[C@H](CCC(N)=O)NC(=O)[C@@H](NC(=O)[C@H](C)NC(=O)[C@@H]1CCCCNC(=O)C[C@H](NC(=O)[C@H](CCCNC(=N)N)NC(=O)CC[C@H](NC(=O)CCCCCCCCCCCCCCCCCCC(=O)O)C(=O)O)C(=O)NCC(=O)N[C@@H]([C@@H](C)O)C(=O)N[C@@H](C)C(=O)N[C@@H]([C@@H](C)O)C(=O)N1)[C@@H](C)O
With B5, the hCT-R EC50 [nM] (cAMP formation, 1321N1 cells expressing hCT-R) in assay [1] worked out at 0.028 nM. For the same molecule, in assay [2], the hAMYR3 EC50 [nM] (cAMP formation, 1321N1 cells expressing hAMYR3) worked out at 0.008 nM.

B6: Compound 36 (peptide)
peptide: {C20 diacid-γGlu}-RDGTATKATERLA[Aad]FLQRSSF[Sar]A[NMeI]LSSTETGSNT[Hyp]-NH2
modifications: lactam 2-7
SMILES: CC[C@H](C)[C@@H](C(=O)N[C@@H](CC(C)C)C(=O)N[C@@H](CO)C(=O)N[C@@H](CO)C(=O)N[C@H](C(=O)N[C@@H](CCC(=O)O)C(=O)N[C@H](C(=O)NCC(=O)N[C@@H](CO)C(=O)N[C@@H](CC(N)=O)C(=O)N[C@H](C(=O)N1C[C@H](O)C[C@H]1C(N)=O)[C@@H](C)O)[C@@H](C)O)[C@@H](C)O)N(C)C(=O)[C@H](C)NC(=O)CN(C)C(=O)[C@H](Cc1ccccc1)NC(=O)[C@H](CO)NC(=O)[C@H](CO)NC(=O)[C@H](CCCNC(=N)N)NC(=O)[C@H](CCC(N)=O)NC(=O)[C@H](CC(C)C)NC(=O)[C@H](Cc1ccccc1)NC(=O)[C@H](CCCC(=O)O)NC(=O)[C@H](C)NC(=O)[C@H](CC(C)C)NC(=O)[C@H](CCCNC(=N)N)NC(=O)[C@H](CCC(=O)O)NC(=O)[C@@H](NC(=O)[C@H](C)NC(=O)[C@@H]1CCCCNC(=O)C[C@H](NC(=O)[C@H](CCCNC(=N)N)NC(=O)CC[C@H](NC(=O)CCCCCCCCCCCCCCCCCCC(=O)O)C(=O)O)C(=O)NCC(=O)N[C@@H]([C@@H](C)O)C(=O)N[C@@H](C)C(=O)N[C@@H]([C@@H](C)O)C(=O)N1)[C@@H](C)O
On to B6, for which, in assay [1], the hCT-R EC50 [nM] (cAMP formation, 1321N1 cells expressing hCT-R) was 0.026 nM. For the same molecule, in assay [2], the hAMYR3 EC50 [nM] (cAMP formation, 1321N1 cells expressing hAMYR3) came out at 0.007 nM.

B7: Compound 37 (peptide)
peptide: {C20 diacid-γGlu}-EDGTATKATERLA[Aad]FLQRSSF[Sar]A[NMeI]LSSTEVGSNT[Hyp]-NH2
modifications: lactam 2-7
SMILES: CC[C@H](C)[C@@H](C(=O)N[C@@H](CC(C)C)C(=O)N[C@@H](CO)C(=O)N[C@@H](CO)C(=O)N[C@H](C(=O)N[C@@H](CCC(=O)O)C(=O)N[C@H](C(=O)NCC(=O)N[C@@H](CO)C(=O)N[C@@H](CC(N)=O)C(=O)N[C@H](C(=O)N1C[C@H](O)C[C@H]1C(N)=O)[C@@H](C)O)C(C)C)[C@@H](C)O)N(C)C(=O)[C@H](C)NC(=O)CN(C)C(=O)[C@H](Cc1ccccc1)NC(=O)[C@H](CO)NC(=O)[C@H](CO)NC(=O)[C@H](CCCNC(=N)N)NC(=O)[C@H](CCC(N)=O)NC(=O)[C@H](CC(C)C)NC(=O)[C@H](Cc1ccccc1)NC(=O)[C@H](CCCC(=O)O)NC(=O)[C@H](C)NC(=O)[C@H](CC(C)C)NC(=O)[C@H](CCCNC(=N)N)NC(=O)[C@H](CCC(=O)O)NC(=O)[C@@H](NC(=O)[C@H](C)NC(=O)[C@@H]1CCCCNC(=O)C[C@H](NC(=O)[C@H](CCC(=O)O)NC(=O)CC[C@H](NC(=O)CCCCCCCCCCCCCCCCCCC(=O)O)C(=O)O)C(=O)NCC(=O)N[C@@H]([C@@H](C)O)C(=O)N[C@@H](C)C(=O)N[C@@H]([C@@H](C)O)C(=O)N1)[C@@H](C)O
As for B7, in assay [1], the hCT-R EC50 [nM] (cAMP formation, 1321N1 cells expressing hCT-R) amounted to 0.116 nM. Further, the hAMYR3 EC50 [nM] (cAMP formation, 1321N1 cells expressing hAMYR3) in assay [2] amounted to 0.031 nM.

For the origin of these results see US20180071366A1.
